How the values were obtained:
[1] = target: T1, Recombinant mouse Ctla-4Fc protein (mouse, UniProt P09793 36-162, limits assumed); assay: competition ELISA: B7-2 coated (blocked ligand), biotinylated mouse Ctla-4-Fc, antibody varied, avidin-HRP
T1 construct: Bought; also called biotinylated mouse Ctla-4-Fc; not shown: Fc part; not described

[2] = target: T1, Recombinant mouse Ctla-4Fc protein; assay: competition ELISA: B7-1 coated (blocked ligand), biotinylated mouse Ctla-4-Fc, antibody varied, avidin-HRP
[3] = target: OFP-tagged human CTLA-4 on CHO cells (human) (UniProt P16410)
OFP-tagged human CTLA-4 on CHO cells (human), sequence (P16410 36-223): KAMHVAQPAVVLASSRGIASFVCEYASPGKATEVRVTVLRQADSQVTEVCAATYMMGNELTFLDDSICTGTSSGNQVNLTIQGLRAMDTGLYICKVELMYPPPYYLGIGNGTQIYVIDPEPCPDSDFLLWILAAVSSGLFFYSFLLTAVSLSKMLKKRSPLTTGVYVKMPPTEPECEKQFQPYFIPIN

[4] = target: human CTLA-4-Fc (human) (UniProt P16410); assay: flow cytometry, competition: biotinylated CTLA-4-Fc on CHO cells expressing mB7-2 (blocked ligand), antibody varied, PE-streptavidin
human CTLA-4-Fc (human), sequence (P16410 37-161 limits assumed): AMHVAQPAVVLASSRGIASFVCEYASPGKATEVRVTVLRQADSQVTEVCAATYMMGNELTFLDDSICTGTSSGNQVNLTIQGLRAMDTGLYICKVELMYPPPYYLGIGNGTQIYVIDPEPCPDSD

[5] = target: human CTLA-4-Fc (human) (UniProt P16410); assay: flow cytometry, competition: biotinylated CTLA-4-Fc on CHO cells expressing hB7-1 (blocked ligand), antibody varied, PE-streptavidin
[6] = target: human CTLA-4-Fc (human) (UniProt P16410); assay: flow cytometry, competition: biotinylated CTLA-4-Fc 200 ng/test on hB7-1-positive, FcR-negative L929 cells (blocked ligand), antibody varied, PE-streptavidin
[7] = target: polyhistidine tagged human CTLA-4 (human) (UniProt P16410); assay: flow cytometry, competition: 200 ng biotinylated polyhistidine-tagged CTLA-4 on CHO cells expressing human B7-1 (blocked ligand), antibody varied, PE-streptavidin
polyhistidine tagged human CTLA-4 (human), sequence (P16410 36-162 limits assumed): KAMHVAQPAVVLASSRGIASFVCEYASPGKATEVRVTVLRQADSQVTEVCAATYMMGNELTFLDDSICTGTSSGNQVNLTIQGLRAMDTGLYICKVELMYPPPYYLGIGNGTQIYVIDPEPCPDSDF

[8] = target: human CTLA-4-Fc (human) (UniProt P16410); assay: competition ELISA: B7-2-Fc immobilized (blocked ligand), biotinylated CTLA-4-Fc at […], antibody varied
[9] = target: human CTLA-4-Fc (human) (UniProt P16410); assay: competition ELISA; hB7-1-Fc coated at 0.5 µg/ml, biotinylated CTLA-4-Fc at […]
[10] = target: human CTLA-4 on or in cells (T cells of Ctla4 h/h knock-in mice; CHO stable lines and 293T cells expressing hCTLA-4) (human) (UniProt P16410); assay: cell-based or functional assay
human CTLA-4 on or in cells (T cells of Ctla4 h/h knock-in mice; CHO stable lines and 293T cells expressing hCTLA-4) (human), sequence (P16410 36-223): as the sequence (P16410 36-223) above

[11] = target: human CTLA-4-Fc (human) (UniProt P16410); assay: competition ELISA: hCTLA-4-Fc coated at 1 µg/ml, blocked ligand biotinylated hB7-1-Fc at […], antibody varied
[12] = target: human CTLA-4-Fc (human) (UniProt P16410); assay: competition ELISA: hCTLA-4-Ig immobilized at […], blocked ligand biotinylated hB7-1-Fc at […], antibody varied, avidin-HRP
[13] = target: human CTLA-4-Fc (human) (UniProt P16410); assay: BLI (Octet Red96); antibody on anti-hIgG-Fc biosensor, antigen in solution from 600 nM
[14] = target: human CTLA-4-Fc (human) (UniProt P16410); assay: flow cytometry, competition: 200 ng hCTLA-4-Fc on CHO cells expressing mouse B7-1 (blocked ligand), antibody varied
[15] = target: human CTLA-4-Fc (human) (UniProt P16410); assay: ELISA: antibody coated at varying doses, biotinylated CTLA-4-Fc at […], streptavidin-HRP
[16] = target: human CTLA-4-Fc (human) (UniProt P16410); assay: competition ELISA; hB7-2-Fc coated, biotinylated CTLA-4-Fc at […]
[17] = target: T1, Recombinant mouse Ctla-4Fc protein; assay: ELISA: plate bound mouse Ctla-4-Fc, antibody varied
[18] = target: polyhistidine tagged human CTLA-4 (human) (UniProt P16410); assay: ELISA; His-hCTLA-4 coated at 0.5 µg/ml, varying antibody doses
[19] = target: human CTLA-4-Fc (human) (UniProt P16410); assay: BLI (Octet Red96)
[20] = target: T1, Recombinant mouse Ctla-4Fc protein; assay: competition ELISA: mB7-2 coated (blocked ligand), biotinylated mouse Ctla-4-Fc, antibody varied
[21] = target: mouse Ctla-4 in cells (spleen CD3+CD4+ cells of Ctla4 m/m mice) (mouse) (UniProt P09793); assay: cell-based or functional assay
[22] = target: T1, Recombinant mouse Ctla-4Fc protein; assay: ELISA, binding to soluble mouse Ctla-4-Fc; neither sheet nor legend says which component's concentration is on the axis

hamster anti-mouse Ctla-4 mAb 4F10 (antibody)
IC50 (read off the curve) [1]: 0.3 mg/L
IC50 (read off the curve) [2]: 1 mg/L

B7-H2-GFP on transfected P815 cells (ligand)
% GFP+OFP+ cells (upper right quadrant), Mix-0 h [3]: 0.19%
% GFP+OFP+ cells (upper right quadrant), Mix-1 h [3]: 0.3%
% GFP+OFP+ cells (upper right quadrant), Mix-4 h [3]: 0.49%

L3D10 chimera antibody (human IgG1 Fc and the variable regions of mouse anti-human CTLA-4 mAb L3D10)
IC50 (read off the curve) [4]: 0.9 mg/L
IC50 (read off the curve) [5]: 8 mg/L
IC50 (read off the curve) [6]: 1 mg/L
IC50 (read off the curve) [7]: 2 mg/L
IC50 (read off the curve) [8]: 0.1 mg/L
IC50 [9]: 3 mg/L
lowest concentration with significant blocking [9]: 0.2 µg/mL
level of hB7-2 on DC of human CD34+ reconstituted NSG mice [10]: 2.5 fold
IC50 (read off the curve) [11]: 0.2 mg/L
IC50 (read off the curve) [12]: 0.4 mg/L
Kd [13]: 2.3 nM
IC50 (read off the curve) [14]: 1 mg/L
EC50 (read off the curve) [15]: 1 mg/L
IC50 [16]: 0.1 mg/L

B1: anti-mouse Ctla-4 mAb 9H10 (antibody, from another filing)
scFv: YPYDVPDYAGAQPARSDIVMTQSPSSLAVSVGEKVTISCKSSQSLLYGSSHYLAWYQQKVGQSPKLLIYWASTRHTGIPDRFIGSGSGTDFTLSLSSVQAEDMADYFCQQYFSTPWTFGAGTRVEIKSGSGGGSGGGSGGGSQVQLLQSESELVKPGASVKLSCKTSGYTFTDYYIHWVKQKPGQGLEWIGLINPNNDGTNYNQKFQGKATLTADKSSSTAYMELNSLTFDDSVIYFCARASSRLRMARTTSDYYAMDYWGQGIQVTVSSVDSSGSGGCKPCICTVPEVSSVFIFPPKPKDVLTITLTPKVTCVVVDISKDDPEVQFSWFVDDVEVHTAQTQPREEQFNSTFRSVSELPIMHQDWLNGKEFKCRVNSAAFPAPIEKTISKTKGRPKAPQVYTIPPPKEQMAKDKVSLTCMITDFFPEDITVEWQWNGQPAENYKNTQPIMDTDGSYFVYSKLNVQKSNWEAGNTFTCSVLHEGLHNHHTEKSLSHSPGK
EC50 (read off the curve) [17]: 1 mg/L

B2: HL12 (humanized L3D10 clone) (antibody, from another filing, V domains shown)
VH: QVQLQESGPGLVKPSETLSLTCTVSGFSLTSYGLSWIRQPPGKGLEWIGYIWYDGNTNFHPSLKSRVTISKDTSKNQFSLKLSSVTAADTAVYYCAKTEGHYYGSNYGYYALDYWGQGTSVTVSS
VL: DIQMTQSPSSLSASVGDRVTITCRASENIYSNLAWYQQKQGKAPKLLLYAATNLQDGVPSRFSGSGSGTDYTLTISSLQPEDFATYFCQHLWGTPYTFGQGTKLEIK
fold reduction of binding at pH 4.5 against pH 7.0 (by increase of IC50) [18]: > 100 fold
fold reduction of binding at pH 5.5 against pH 7.0 (by increase of IC50) [18]: > 10 fold
Kd [13]: 7.2 nM
koff [13]: 0.0016 s⁻¹
kon [13]: 230000 M⁻¹ s⁻¹
fold increase in off-rate against L3D10 [19]: 4 fold

B3: HL32 (humanized L3D10 clone) (antibody, from another filing, V domains shown)
VH: QVQLQESGPGLVKPSETLSLTCTVSGFSLTSYGLSWIRQPPGKGLEWIGYIWYDGNTNFHSPLKSRVTISVDTSKNQFSLKLSSVTAADTAVYYCAKTEGHYYGSNYGYYALDYWGQGTLVTVSS
VL: DIQMTQSPSSLSASVGDRVTITCRASENIYSNLAWYQQKQGKAPKLLLYAATNLQDGVPSRFSGSGSGTDYTLTISSLQPEDFATYFCQHLWGTPYTFGQGTKLEIK
fold reduction of binding at pH 4.5 against pH 7.0 (by increase of IC50) [18]: > 100 fold
fold reduction of binding at pH 5.5 against pH 7.0 (by increase of IC50) [18]: > 10 fold
Kd [13]: 7.1 nM
koff [13]: 0.0019 s⁻¹
kon [13]: 270000 M⁻¹ s⁻¹
fold increase in off-rate against L3D10 [19]: 4 fold

B4: anti-mouse Ctla-4 mAb 9D9 (antibody, V domains shown)
VH: EAKLQESGPVLVKPGASVKMSCKASGYTFTDYYMNWVKQSHGKSLEWIGVINPYNGDTSYNQKFKGKATLTVDKSSSTAYMELNSLTSEDSAVYYCARYYGSWFAYWGQGTLITVST
VL: DIVMTQTTLSLPVSLGDQASISCRSSQSIVHSNGNTYLEWYLQKPGQSPKLLIYKVSNRFSGVPDRFSGSGSGTDFTLKISRVEAEDLGVYYCFQGSHVPYTFGGGTKLEIK
IC50 (read off the curve) [20]: ~2 mg/L
level of mB7-1 on DC of WT mice [21]: 15%
EC50 (read off the curve) [22]: ~0.4 mg/L

Source: patent US20210047410A1 (ONCOLMMUNE, published 2021)
